Reference: patent US20200016315A1 (SYDDANSK UNIVERSITET, published 2020)
Numbering of substitutions follows the chain as printed. Names may count otherwise.

B1: IsdH^N1 (residues 86-229) with N-terminal His6 tag and thrombin cleavage site (receptor)
chain: DIGPREQVNFQLLDKNNETQYYHFFSIKDPADVYYTKKKAEVELDINTASTWKKFEVYENNQKLPVRLVSYSPVPEDHAYIRFPVSDGTQELKIVSSTQIDDGEETNYDYTKLVFAKPIYNDPSL
modifications: coupled through primary amines to CNBr-activated Sepharose
notes: also called N1 Seph; not shown: added N-terminal His6 tag and thrombin cleavage site
B2: IsdH N1N2N3 (residues 82-655), wild type (receptor)
chain: NYPAADESLKDAIKDPALENKEHDIGPREQVNFQLLDKNNETQYYHFFSIKDPADVYYTKKKAEVELDINTASTWKKFEVYENNQKLPVRLVSYSPVPEDHAYIRFPVSDGTQELKIVSSTQIDDGEETNYDYTKLVFAKPIYNDPSLVKSDTNDAVVTNDQSSSVASNQTNTNTSNQNISTINNANNQPQATTNMSQPAQPKSSTNADQASSQPAHETNSNGNTNDKTNESSNQSDVNQQYPPADESLQDAIKNPAIIDKEHTADNWRPIDFQMKNDKGERQFYHYASTVEPATVIFTKTGPIIELGLKTASTWKKFEVYEGDKKLPVELVSYDSDKDYAYIRFPVSNGTREVKIVSSIEYGENIHEDYDYTLMVFAQPITNNPDDYVDEETYNLQKLLAPYHKAKTLERQVYELEKLQEKLPEKYKAEYKKKLDQTRVELADQVKSAVTEFENVTPTNDQLTDLQEAHFVVFESEENSESVMDGFVEHPFYTATLNGQKYVVMKTKDDSYWKDLIVEGKRVTTVSKDPKNNSRTLIFPYIPDKAVYNAIVKVVVANIGYEGQYHVRIINQDI
modifications: coupled through primary amines to CNBr-activated Sepharose
notes: In the assay the protein was immobilized on Sepharose; also called IsdH N1N2N3 wt; N1N2N3-Seph; not shown: vector-encoded His6 tag of pET-15b
B3: IsdH N1N2N3 Y642A (receptor)
chain: B2 chain with Y561A
modifications: coupled through primary amines to CNBr-activated Sepharose
notes: also called N1N2N3-Y642A-Seph; Y642A mutant; not shown: vector-encoded His6 tag of pET-15b

Target: T1, hemoglobin (human, UniProt P69905 2-142; P68871 2-147)
T1 construct: also called Hb; human Hb
Assay: plasma with 3 g/l added hemoglobin mixed with equal volume of protein-Sepharose, supernatant on Cobas 6000; not corrected for dilution; no Sepharose 80, sham Sepharose 25

Binder | H-index of supernatant (hemoglobin left after removal) [mg/dL]
B1 | 29
B2 | 12
B3 | 8

Target: T1, hemoglobin
Assay: raw plasma without added hemoglobin mixed with equal volume of protein-Sepharose, supernatant on Cobas 6000; not corrected for dilution; no Sepharose 7, sham Sepharose 0

Binder | H-index of supernatant (hemoglobin left after removal) [mg/dL]
B1 | 0
B2 | 0
B3 | 0
